Laboratory results published in patent publication US20110287000A1 (published 2011).

B6: human CD127 (IL-7Rα) expressed on cells (CD127-transfected CHO cells; PBMC / CD4+ T cells in functional assays) (receptor)
chain: ESGYAQNGDLEDAELDDYSFSCYSQLEVNGSQHSLTCAFEDPDVNTTNLEFEICGALVEVKCLNFRKLQEIYFIETKKFLLIGKSNICVKVGEKSLTCKKIDLTTIVKPEAPFDLSVIYREGANDFVVTFNTSHLQKKYVKVLMHDVAYRQEKDENKWTHVNLSSTKLTLLQRKLQPAAMYEIKVRSIPDHYFKGFWSEWSPSYYFRTPEINNSSGEMDPILLTISILSFFSVALLVILACVLWKKRIKPIVWPSLPDHKKTLEHLCKKPRKNLNVSFNPESFLDCQIHRVDDIQARDEVEGFLQDTFPQQLEESEKQRLGGDVQSPNCPSEDVVVTPESFGRDSSLTCLAGNVSACDAPILSSSRSLDCRESGKNGPHVYQDLLLSLGTTNSTLPPPFSLQSGILTLNPVAQGQPILTSLGSNQEEAYVTMSSFYQNQ
notes: The construct transfected into CHO is not described further; The same entry is used for native CD127 on human PBMC/T cells in functional rows; also called CHO-CD127; IL-7Rα expressed on CHO

What was measured:
[1] = biological target: recombinant human CD127 extracellular domain (CD127 ECD) (human) (UniProt P16871); test: SPR (profile summary)
[2] = biological target: human CD127 (IL-7Rα) expressed on cells (CD127-transfected CHO cells; PBMC / CD4+ T cells in functional assays) (human) (UniProt P16871); test: cell-based or functional assay
[3] = biological target: human CD127 (IL-7Rα) expressed on cells (CD127-transfected CHO cells; PBMC / CD4+ T cells in functional assays) (human) (UniProt P16871); test: binding to CHO cells expressing IL-7Rα (flow cytometry)
[4] = biological target: recombinant human CD127 extracellular domain (CD127 ECD) (human) (UniProt P16871); test: blocking of IL-7/IL-7Rα binding, competitor IL-7; format not given
[5] = biological target: recombinant human CD127 extracellular domain (CD127 ECD) (human) (UniProt P16871); test: BIAcore blocking assay: inhibition ratio of CD127 ECD binding to immobilised IL-7 against antibody concentration
[6] = biological target: B6; test: cell-based or functional assay
[7] = biological target: T1, recombinant human CD127 extracellular domain (CD127 ECD) (human, UniProt P16871 21-219); test: SPR, Biacore T100, 25° C.; antibody captured on rabbit anti-mouse IgG, CD127 ECD as analyte
T1 construct: The assays only say 'recombinant human CD127 ECD'; also called IL-7Rα EDC; IL-7Rα
T1 chain: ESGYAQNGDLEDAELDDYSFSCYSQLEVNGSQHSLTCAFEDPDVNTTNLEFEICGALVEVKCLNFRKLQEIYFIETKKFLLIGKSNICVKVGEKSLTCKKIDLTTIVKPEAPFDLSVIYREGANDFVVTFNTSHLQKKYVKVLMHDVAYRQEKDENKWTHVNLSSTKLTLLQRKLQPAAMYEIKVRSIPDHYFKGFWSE
Description: Antibody kinetics were assessed using a Biacore T100 system (GE Healthcare) with a reaction temperature of 25° C. Rabbit anti-mouse IgG antibody was immobilized on a CM5 biosensor chip with a final level of […] (response units) using the standard amine coupling kit and procedure. HBS-EP buffer pH 7.4 (consisting of 10 mM HEPES, 0.15 M sodium chloride, 3 mM EDTA and 0.005% v/v surfactant P20) was used as running buffer. Sensograms were run against a reference cell that was blank immobilized using EDC/NHS/ethanol amine. […] The sensor chip surfaces were regenerated with 10 mM Glycine-HCl, pH 1.7. Kd values were calculated using the Biacore evaluation software package.

[8] = biological target: T1, recombinant human CD127 extracellular …; test: SPR (profile summary; differs from Table 3)
[9] = biological target: B6; test: binding to CHO cells expressing IL-7Rα (flow cytometry)
[10] = biological target: T1, recombinant human CD127 extracellular …; test: BIAcore blocking assay: inhibition ratio of CD127 ECD binding to immobilised IL-7 against antibody concentration
Description: HBS-EP buffer pH 7.4 (consisting of 10 mM HEPES, 0.15 M sodium chloride, 3 mM EDTA and 0.005% v/v surfactant P20) was used as running buffer. Sensograms were run against a reference cell that was blank immobilized using EDC/NHS/ethanol amine. […] After each injection the sensor chip surfaces were regenerated with 10 mM Glycine-HCl, pH 2.0. […] Inhibition ratio calculated as follows: Inhibition ratio=1−RU(sample)/RU(ECD).

[11] = biological target: T1, recombinant human CD127 extracellular …; test: blocking of IL-7/IL-7Rα binding, competitor IL-7; format not stated in the sentence (BIAcore neutralising assay with immobilised IL-7 is described in 2.11)
[12] = biological target: T1, recombinant human CD127 extracellular …; test: blocking of IL-7/IL-7Rα binding, competitor IL-7; format not given
[13] = biological target: T1, recombinant human CD127 extracellular …; test: ELISA, recombinant human CD127 ECD coated on the plate, detection with HRP goat anti-mouse IgG
From the text: Anti-CD127 antibodies from the test hybridoma supernatants or purified material were titrated across the plate. The level of binding was detected by treatment with a horse-radish peroxidase (HRP) -conjugated goat-anti-mouse IgG antibody. The ELISA was developed using TMB substrate.

[14] = biological target: T1, recombinant human CD127 extracellular …; test: SPR, Biacore T100; CD127 ECD immobilised on CM5, 9B7 hybridoma supernatant as analyte; table title says 37° C.
Description: HBS-EP buffer pH 7.4 (consisting of 10 mM HEPES, 0.15 M sodium chloride, 3 mM EDTA and 0.005% v/v surfactant P20) was used as running buffer. […] Kd values were calculated using the Biacore evaluation software package.

recombinant human IL-7 = biological target: T2, recombinant human IL-7 (human, UniProt P13232 26-177); test: flow cytometry competition on CHO-CD127 cells: pre-incubation with IL-7, then staining with 6A3 (competitor read out: 6A3)
T2 sequence (looked up): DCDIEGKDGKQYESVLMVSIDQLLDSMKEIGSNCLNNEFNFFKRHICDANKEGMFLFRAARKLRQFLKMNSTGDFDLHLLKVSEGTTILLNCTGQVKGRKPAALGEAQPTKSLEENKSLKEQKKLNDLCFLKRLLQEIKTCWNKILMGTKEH
Description: After the incubation, anti-CD127 antibodies were added and the incubation continued for additional 30 min in 4% FCS in DPBS (FACS buffer). Afterward cells were washed in FACS buffer 3 times and stained with anti-mouse IgG ALEXA488 secondary antibody at 1:2000 dilution (Invitrogen Inc. #13-A11017).

Q: “R34.34 (Dendritics Inc. #DDX0700), commercial anti-human CD127 antibody” was tested. Which Kd [1] did it give?
A: Its Kd is 7.74 nM.

Q: And the IC50 of inhibition of pSTAT5 signalling [2]?
A: Its IC50 of inhibition of pSTAT5 signalling is 0.67 µg/ml.

Q: What about the IL-17 production in IL-7 induced differentiated T cells (CCR6+ TH17), donors with inhibition [2] of the same molecule?
A: The IL-17 production in IL-7 induced differentiated T cells (CCR6+ TH17), donors with inhibition was 6 of 6 donors.

Q: And the EC50 [3]?
A: Its EC50 is 0.01 µg/mL.

Q: And the IC50 [4]?
A: The IC50 was 1.38 µg/mL.

Q: What about the IC50 (read off the curve) [5] of the same molecule?
A: The IC50 (read off the curve) was 3 µg/mL.

B1: mAb 6C5 (murine anti-human CD127 monoclonal antibody) (antibody, mouse IgG1, V domains shown)
VH: EVKLLESGGGLVQPGGSLKLSCAASGFAFSAYWMSWVRQAPGKGLEWIGEINPDSSTINCTPSLKDKFIISRDNAKNTLSLQMNKVRSEDTALYYCARRLRPFWYFDVWGAGTTVTVSS
VL: DVLMTQTPLSLPVSLGDQASISCRSSQSIVQSNGNTYLEWYLQKPGQSPKLLIYKVSNRFSGVPDRFSGSGSGTDFTLKISRVEAEDLGVYYCFQGSHVPRTFGGGTKLEIK
notes: also called antibody 6C5
Q: What does the source list for B1?
A: IC50 of inhibition of pSTAT5 signalling [6]: 50 µg/ml; Kd [7]: 24.4 nM; koff [7]: 0.000436 s⁻¹; kon [7]: 17900 M⁻¹ s⁻¹

B2: mAb 6A3 (murine anti-human CD127 monoclonal antibody) (antibody, mouse IgG1, V domains shown)
VH: DVQLQESGPGLVKPSQSLSLTCTVTGYSITTDYAWNWIRQFPGNKLEWMGYIFYSGSTTYTPSLKSRISITRDTSKNQFFLQLNSVTTEDTATYYCARGGYDVNYFDYWGQGTTLTVSS
VL: DIQMTQSPASQSASLGESVTITCLASQTIGAWLAWYQQKPGKSPQLLIYAATRLADGVPSRFSGSGSGTKFSFKISSLQAEDFVSYYCQQFFSTPWTFGGGTKLEIK
notes: also called antibody 6A3
Q: With B2 as the molecule, how does the “IC50 of inhibition of pSTAT5 signalling” value [6] read?
A: The value was 0.099 µg/ml.

Q: What about the Kd [8] of the same molecule?
A: Its Kd is 7.99 nM.

Q: What about the koff [8] of the same molecule?
A: Its koff is 0.000334 s⁻¹.

Q: And the EC50 [9]?
A: Its EC50 is 0.19 µg/mL.

Q: What about the Kd [7] of the same molecule?
A: Its Kd is 7.74 nM.

Q: What about the koff [7] of the same molecule?
A: Its koff is 0.000146 s⁻¹.

Q: And the kon [7]?
A: Its kon is 18900 M⁻¹ s⁻¹.

Q: And the “IC50 (read off the curve)” value [10]?
A: The value was roughly 2 µg/mL.

Q: And the IC50 [11]?
A: The IC50 was 1.92 µg/mL.

B3: mAb 1A11 (murine anti-human CD127 monoclonal antibody) (antibody, mouse IgG1, V domains shown)
VH: EVQLQQSGPELLKPGASMKISCKASGYSFTGYTMNWVKQSHGKNLEWIGLINPYNGVTSYNQKFKGKATLTVAKSSSTAYMELLSLTSEDSAVYYCARGDGNYWYFDVWGAGTTVTVSS
VL: EIVLTQSPAITAASLGQKVTITCSASSSVTYMHWYQQKSGTSPKPWIYEISKLASGVPVRFSGSGSGTSYSLTISSMEAEDAAIYYCQEWNYPYTFGGGTKLEIK
notes: also called antibody 1A11
Q: With B3 as the molecule, how does the “IC50 of inhibition of pSTAT5 signalling” value [6] read?
A: The value was 0.088 µg/ml.

Q: What about the EC50 [9] of the same molecule?
A: Its EC50 is 0.16 µg/mL.

Q: What about the IC50 [12] of the same molecule?
A: Its IC50 is 1.79 µg/mL.

Q: What about the Kd [7] of the same molecule?
A: Its Kd is 3.44 nM.

Q: What about the koff [7] of the same molecule?
A: The koff was 0.000251 s⁻¹.

B4: mAb GR34 (reverse engineered clone of R34.34) (antibody, mouse IgG1, V domains shown)
VH: EVQLQQSGPELVKPGASMKISCKASGYSFTGYTMNWVKQSHGKNLEWIGLINPYSGITSYNQNFKGKATLTVDKSSSTAYMELLNLTSEDSAVYYCARGDGNYWYFDVWGAGTTVTVSS
VL: EIILTQSPAITAASLGQKVTITCSASSSVSYMHWYQQKSGTSPKPWIYEISKLASGVPARFSGSGSGTSYSLTISSMEAEDAAIYYCQYWNYPYTFGGGTKLEIK
notes: also called antibody GR34
Q: B4 was tested. Which “IC50 of inhibition of pSTAT5 signalling” value [6] did it give?
A: Its value is 0.22 µg/ml.

Q: What about the EC50 [9] of the same molecule?
A: The EC50 was 0.27 µg/mL.

Q: And the IC50 [12]?
A: Its IC50 is 2.29 µg/mL.

Q: What about the Kd [7] of the same molecule?
A: Its Kd is 15.3 nM.

Q: What about the koff [7] of the same molecule?
A: The koff was 0.000875 s⁻¹.

B5: mAb 9B7 (murine anti-human CD127 monoclonal antibody) (antibody, IgG1, V domains shown)
VH: QVQLQESGPGLVAPSQSLSITCTVSGFSLSRYNVHWVRQPPGKGLEWLGMIWDGGSTDYNSALKSRLSITKDNSKSQVFLKMNSLQTDDTAMYYCARNRYESGMDYWGQGTTVTVSS
VL: DIVMTQTPSSLTVTAGEKVTMSCKSSQSLLNSGNRKNYLTWYQQKPGQSPKLLIYWASTRESGVPDRFTGSGSGTDFTLIISSVQAEDLAVYYCQNDYTYPFTFGSGTKLEIKR
notes: Mouse hybridoma antibody; also called antibody 9B7; clone 9B7
Q: How did the “EC50 (read off the curve)” value [13] turn out when B5 was run?
A: Its value is roughly 0.6 µg/mL.

Q: What about the Kd [14] of the same molecule?
A: The Kd was 0.556 nM.

Q: Does B6 bind (recombinant human IL-7)?
A: Result: binds
